1 molecule from patent US20260265370A1 (SUZHOU TRANSCENTA THERAPEUTICS, published 2026) can be followed below.

The target in this assay is T1, human PD-L1 (human, UniProt Q9NZQ7 19-290).
T1 construct: whole, on cells; Endogenous protein in FFPE tumour sections; also called PD-ligand 1
In words: IHC on FFPE GC-02-0007 PDX tumour sections, Leica BOND III, membrane staining. Here is the method: PD-L1 expression status was also assessed to better understand the immune modulation pre- and post Hu18B10-HaLa treatment in GC-02-0007 PDX tumor samples. Immunohistochemistry (IHC) was performed on these 4% neutral buffered formalin fixed paraffin-embedded (FFPE) tumor sections using commercially available Rabbit anti-human PD-L1 monoclonal antibodies (SP263). After deparaffinization and rehydration, all slides were proceeded to antigen retrieval in BOND Epitope Retrieval Solution 2 (Leica, AR9640) for 30 minutes at 97-99° C. Subsequently quenched, blocked with peroxidase inhibitor and incubated with appropriately diluted SP263 (0.2 ug/mL) antibodies for 30 minutes at room temperature (RT). Antibody binding was visualized with BOND Polymer Detection (Leica, DS9800) for 8 minutes on auto-staining Leica BOND III. Sections were finally counterstained with Hematoxylin and mounted with permanent mounting medium.

T1 sequence (Q9NZQ7 19-290): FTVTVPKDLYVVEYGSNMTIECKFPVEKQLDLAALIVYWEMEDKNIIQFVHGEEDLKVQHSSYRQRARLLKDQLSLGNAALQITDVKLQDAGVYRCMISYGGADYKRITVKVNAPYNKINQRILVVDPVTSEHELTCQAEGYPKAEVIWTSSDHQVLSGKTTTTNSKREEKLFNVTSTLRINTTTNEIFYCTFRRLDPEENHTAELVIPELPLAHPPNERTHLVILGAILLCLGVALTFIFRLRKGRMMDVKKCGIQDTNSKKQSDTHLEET

B1: Rabbit anti-human PD-L1 monoclonal antibody SP263 (antibody, V domains shown)
VH: QSLEESGGRLVTPGTPLTLTCTASGFSLSNHAISWVRQAPGKGLEWIGTINSDTHTYYATWPKGRFTISKTSSTTVDLKMTSPTTEDTATYFCARRIFSSSNIWGPGTLVTVSS
VL: AIVMTQTSSPVSAVVGGTVAINCQASQSIYNNNWLSWFQQKPGQPPKLLIYLASTLASGVPSRFKGSGSGTQFTLTISDVVCDDAATYYCIGGESSNNDGIAFGGGTEVVVK
notes: Commercially available rabbit monoclonal antibody; also called anti-PD-L1 diagnostic antibody SP263
For the molecule B1, the binding result is given as “binds”.
